In US20200158726A1 (NORDIC BIOSCIENCE A S, published 2020):
No end group written: not given here.

How the values were obtained:
collagen type X alpha 1 = molecular target: T1, collagen type X alpha 1 (human, UniProt Q03692 19-680); experiment: Western blot of U2-OS cell lysate, antibody at 1 ug/ml
T1 construct: Endogenous protein in U2-OS lysates, seen as bands of about 59 kDa (monomer), 76 kDa and 120 kDa (dimer); also called type X collagen; Col10
Procedure: Human osteosarcoma cell lines (U2-OS; collagen X producing cell line) were purchased from ATCC (USA) and cultivated in DMEM medium containing 10% FBS, 2 mM L-Glutamine, 100 units/ml penicillin and 100 ug/ml streptomycin. Cells were grown in T25 flasks in a 37° C. incubator at 5% CO2, changing the medium every two or three days. When the cells reached 90% confluency the cell lysates were prepared using RIPA lysis buffer with following procedure: the cell media was removed and the cells washed twice with PBS, followed by adding cold RIPA lysis buffer (25 mM Tris-HCl pH7, 6; 150 mM NaCl, 1% Sodium deoxycholate acid). An EDTA free cocktail tablet was added to the flask then RIPA buffer was distributed to cover the whole surface of flask and incubated on ice for 10 minutes. The cells were scraped and centrifuged at 10,000 RPM at 4° C. for 10 minutes and the supernatants stored at −20° C. until use.
Protein bands were blotted onto a nitrocellulose membrane using the Invitrogen i-Blot gel transfer system according to manufacturer's instruction. The membrane was blocked in blocking buffer (5% skimmed milk in Tris-buffered saline with Tween (TBST)) overnight at 4° C. The monoclonal antibody, NB509-11G8 and commercial collagen type X antibody X53 (for comparison purposes) were applied in a concentration of 1 μg/ml in TBST with 5% skim milk powder and shaken overnight at 4° C. […]

[1] = molecular target: T2, truncated peptide SFSGFLVA; experiment: competitive peptide assay against the biotinylated screening peptide
T2 construct: Synthetic peptide; the selection peptide without its two C-terminal residues PM
T2 peptide: SFSGFLVA

[2] = molecular target: T3, deselection peptide DMDYLPRVPNQ; experiment: as above
T3 construct: Synthetic peptide
T3 peptide: DMDYLPRVPNQ

[3] = molecular target: T4, selection peptide SFSGFLVAPM-COOH (human); experiment: competitive peptide assay (preliminary assays); the peptide also blocked the Western blot bands
T4 construct: Synthetic peptide; also called calibrator peptide
T4 peptide: SFSGFLVAPM-OH

T1 sequence (Q03692 19-680): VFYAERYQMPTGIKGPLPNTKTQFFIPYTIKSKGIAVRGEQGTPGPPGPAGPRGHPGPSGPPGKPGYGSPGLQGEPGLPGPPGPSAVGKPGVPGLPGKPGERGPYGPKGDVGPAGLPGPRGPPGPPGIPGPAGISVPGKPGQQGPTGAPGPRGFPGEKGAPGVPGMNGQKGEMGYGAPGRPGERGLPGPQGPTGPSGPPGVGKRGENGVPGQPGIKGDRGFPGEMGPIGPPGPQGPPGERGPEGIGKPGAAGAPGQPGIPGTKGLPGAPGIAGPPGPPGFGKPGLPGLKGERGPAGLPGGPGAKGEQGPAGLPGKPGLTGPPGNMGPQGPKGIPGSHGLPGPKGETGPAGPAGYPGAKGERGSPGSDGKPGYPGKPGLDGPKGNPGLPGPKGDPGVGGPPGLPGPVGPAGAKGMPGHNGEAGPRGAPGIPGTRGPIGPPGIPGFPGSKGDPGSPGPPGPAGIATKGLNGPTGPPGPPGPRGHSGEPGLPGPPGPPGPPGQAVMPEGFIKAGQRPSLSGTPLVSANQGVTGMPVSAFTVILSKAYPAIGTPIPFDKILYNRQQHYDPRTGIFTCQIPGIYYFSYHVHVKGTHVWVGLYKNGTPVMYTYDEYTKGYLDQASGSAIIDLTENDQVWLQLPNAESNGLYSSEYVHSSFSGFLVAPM

B1: monoclonal antibody NB509-11G8 (antibody, mouse IgG1, kappa, V domains shown)
VH: EVQLQQSGAELVKPGASVKLSCTASGFNIKDTHMHWVKQRPEQGLEWIGRIDPANVNTKYDPRFQGRATITADTSSNTAYLQLSRLTSEDTAVYYCATSGSSPWGQGTTLTVSS
VL: DVVMTQTPLSLPVSLGDQASISCRSSQSLVHSNGYTYSNWYLQKPGQSPKLLIYRVSNRFSGVPDRFSGSGSGTDFTLKISRVEADDLGVYFCSQSTHVPWTFGGGTKLEIKR
notes: Mouse IgG1, kappa, from a hybridoma
B1: binds (collagen type X alpha 1); no binding [1]; no binding [2]. B1: binds [3].
